Experimental findings from article doi:10.1101/590430 (bioRxiv, 2019) are described below.

The target of the assay is P. luminescens TcdA1 (TcA) (P. luminescens, UniProt Q9RN43 1-2516). The assay is described as follows: cryo-EM structure.

B1: TcdB2 (TcB), as the TcB part of the TcdB2-TccC3 fusion protein (natural protein)
chain: MQNSQDFSITELSLPKGGGAITGMGEALTPTGPDGMAALSLPLPISAGRGYAPAFTLNYNSGAGNSPFGLGWDCNVMTIRRRTHFGVPHYDETDTFLGPEGEVLVVADQPRDESTLQGINLGATFTVTGYRSRLESHFSRLEYWQPKTTGKTDFWLIYSPDGQVHLLGKSPQARISNPSQTTQTAQWLLEASVSSRGEQIYYQYRAEDDTGCEADEITHHLQATAQRYLHIVYYGNRTASETLPGLDGSAPSQADWLFYLVFDYGERSNNLKTPPAFSTTGSWLCRQDRFSRYEYGFEIRTRRLCRQVLMYHHLQALDSKITEHNGPTLVSRLILNYDESAIASTLVFVRRVGHEQDGNVVTLPPLELAYQDFSPRHHAHWQPMDVLANFNAIQRWQLVDLKGEGLPGLLYQDKGAWWYRSAQRLGEIGSDAVTWEKMQPLSVIPSLQSNASLVDINGDGQLDWVITGPGLRGYHSQRPDGSWTRFTPLNALPVEYTHPRAQLADLMGAGLSDLVLIGPKSVRLYANTRDGFAKGKDVVQSGDITLPVPGADPRKLVAFSDVLGSGQAHLVEVSATKVTCWPNLGRGRFGQPITLPGFSQPATEFNPAQVYLADLDGSGPTDLIYVHTNRLDIFLNKSGNGFAEPVTLRFPEGLRFDHTCQLQMADVQGLGVASLILSVPHMSPHHWRCDLTNMKPWLLNEMNNNMGVHHTLRYRSSSQFWLDEKAAALTTGQTPVCYLPFPIHTLWQTETEDEISGNKLVTTLRYARGAWDGREREFRGFGYVEQTDSHQLAQGNAPERTPPALTKNWYATGLPVIDNALSTEYWRDDQAFAGFSPRFTTWQDNKDVPLTPEDDNSRYWFNRALKGQLLRSELYGLDDSTNKHVPYTVTEFRSQVRRLQHTDSRYPVLWSSVVESRNYHYERIASDPQCSQNITLSSDRFGQPLKQLSVQYPRRQQPAINLYPDTLPDKLLANSYDDQQRQLRLTYQQSSWHHLTNNTVRVLGLPDSTRSDIFTYGAENVPAGGLNLELLSDKNSLIADDKPREYLGQQKTAYTDGQNTTPLQTPTRQALIAFTETTVFNQSTLSAFNGSIPSDKLSTTLEQAGYQQTNYLFPRTGEDKVWVAHHGYTDYGTAAQFWRPQKQSNTQLTGKITLIWDANYCVVVQTRDAAGLTTSAKYDWRFLTPVQLTDINDNQHLITLDALGRPITLRFWGTENGKMTGYSSPEKASFSPPSDVNAAIELKKPLPVAQCQVYAPESWMPVLSQKTFNRLAEQDWQKLYNARIITEDGRICTLAYRRWVQSQKAIPQLISLLNNGPRLPPHSLTLTTDRYDHDPEQQIRQQVVFSDGFGRLLQAAARHEAGMARQRNEDGSLIINVQHTENRWAVTGRTEYDNKGQPIRTYQPYFLNDWRYVSNDSARQEKEAYADTHVYDPIGREIKVITAKGWFRRTLFTPWFTVNEDENDTAAEVKKVKM
Regarding B1, the binding result was “binds”.
